From patent EP2661444B1 (Complix SA, dated 2015)

Columns and labels:
[1] = biological target: T1, bL4_C36 (HIV-1 gp41 HR2-derived biotinylated peptide C36) (HIV-1 HXB2, N-terminal biotin; C-terminal amide); assay: ELISA, biotinylated peptide on streptavidin, anti-His-HRP detection, apparent KD
T1 construct: also called gp41 C36 target peptide; control peptide C36
T1 peptide: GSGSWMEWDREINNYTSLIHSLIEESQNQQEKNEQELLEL

[2] = biological target: T2, Biotinylated N51 (HIV-1 gp41 HR1-derived peptide, residues 540 to 590 of HIV-1 HXB2) (HIV-1 HXB2, N-terminal biotin); assay: SPR (BIAcore), biotinylated N51 on streptavidin chip, 1:1 Langmuir fit
T2 construct: Immobilised through biotin on streptavidin; also called HIV-1 N51; biotinylated HIV-1 N51

[3] = biological target: T2, Biotinylated N51 (HIV-1 gp41 …); assay: ELISA, biotinylated peptide on streptavidin, anti-His-HRP detection, sigmoid fit, apparent KD
[4] = biological target: T1, bL4_C36 (HIV-1 gp41 HR2-derived …); assay: as above

Binder	Kd [1] [µM]	Kd [2] [µM]	koff [2] [s⁻¹]	kon [2] [M⁻¹ s⁻¹]	Kd [3] [µM]	Kd [4] [µM]
Alphabody 'scAB013_C2' (designed binder, Single-chain Alphabody that mimics gp41 HR2 (grafted B-helix), made in E. coli; also called wild type scAB013_C2) MSIEEIQKQIAAIQKQIAAIQKQIYRMTGGSSGGSMQMYTIQIQILIIQAQIQQIQNQIELMTLGGSSGGMSIEEIQKQIAAIQKQIAAIQKQIYRMTPLEHHHHHH	> 10	0.00207	0.000209	101000	0.018	
Alphabody 'scAB_Env03' (designed binder, The tag of the construct tested is not described; also called scAB013_Env03) MGHHHHHHHHHHSSGHIEGRHMSIEEIQKPIATIQEAIAWIQKKIYMMTGGSGGGSGGGSGGGSGMSIEEIQKQIAAIQKQIAAIQKQIYAMTGGSGGGSGGGSGGGSGMSIEEIQKQIVAIMEQIVAIVKQISAMTP						0.211
